B1: TPR t1 (parent)
chain: GACCAAUCUGCCCUCAGAGCUCGAGAACAUCUUCGGAUGCAGAGGAGGCAGGCUUCGGUGGCGCGAUAGCGCCAACGUCCUCAACCUCCAAUGCAUCCCACCACAUGAUGAUGCCUGAAGAGCCUUGGUUUUUUG

Variants of: B1
Assay: polymerase ribozyme fitness, log enrichment relative to wild type (log ratio); higher = more active; in vitro selection for triplet polymerase activity
Method in brief: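 Input and output libraries were sequenced on Illumina after a single in vitro selection round, run in triplicate on PCR-built, transcribed mutant libraries of each subunit of a heterodimeric triplet polymerase ribozyme. Selection annealed libraries to a biotinylated primer, the partner subunit and triplets, incubated them frozen at −7 °C, then gel-excised extended constructs for streptavidin-bead capture and RT-PCR. Genotypes with ≥10 input reads and ≥1 read per output were kept. Fitness is the logarithm, taken in base 2, of genotype enrichment divided by wild-type enrichment, using inverse-variance-weighted replicate averages.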

Variant | polymerase ribozyme fitness (log ratio)
U7G G44A C62G A74U C80G G117C | -7
C20U A29G G63A C80U | -4.01
C8A C40G | 0.0349
C53A C72U C98U C123U | -3.81
A16C G44U U125G | -4.42
C49G U109A U112A | -5.85
G61A C88U | -0.64
C62U A91C | -1.43
G23C A26G C82U G120C | -4.02
C3G A5U C11U C73U C89G C123U | -1.08
C11U C104A | -2.66
C104A U112G | -1.47
G45U G48A G69U | -0.269
A18C A43G G47C U54C C114U U126A | -5.87
C8A A37C C101G | -1.22
C73G G120A | -0.212
U14G G47U C101G G120U | -4.67
C11A C13G C20U C53U C64U U78G | -3.27
G57U C94A | -1.08
C4A U7A G110U | -2.4
G17A G48A U87G G117A | -2.48

Variant | polymerase ribozyme fitness (log ratio)
C62G A75C A118U C123A G135U | -2.3
A37C C64U U92G | -2.59
U7C C62U A111U U133A | -2.88
C8A C89U | 0.136
G51U A111C | -4.77
C4U A43U | -2.23
G51C G93U | -5.19
C53G C72G C88A | -0.997
C101G A121U | -0.28
C13G G45U C82U G113A | -2.94
C89U A108G A119G U131G U132C | -1.34
C56A C72U C82U C85U | -1.52
C53U A91U | -2.05
C22A A37U C53U C73G | -5.35
U78C U106A | 0.00582
U7A C8G A43C C53A G77A | -2.07
C11G A18U A46U G57A | -4.09
U55C C123A | -0.354
C12G C73A C88U G122A | -1.14
C20U C70U C102U | -3.45
C15A A68G C97A A103G | -6.8

Variant | polymerase ribozyme fitness (log ratio)
U9G A26C U54A U55A C88U G93A | -6.29
A37U C115U | -0.707
A5U G42C U87A A91G | -1.35
A27U C72G | -3.21
A41C G44U U87C | -1.33
C49A U78A G117C G128A U131C U133G | -6.98
A6U G63U | -1.06
A29G G42C G45C C49A U106A | -4.8
C94U G128U | -1.7
C56G C89G A90C | -3.29
A18U G69A | -5.06
A27C C49G | -4.07
C56A G127A | -1.47
C15A G61C | -4.23
C8A G61U A83C A100C | -0.341
U7A C8A C11G G47U G57U C62U C85A | -1.82
C12U C31G | -5.12
A41U C70A U78G C123U | -3.32
C13U C53G C56A G65A | -7.29
C15A A37U G39A G42U A90U | -3.14
C49U C53U C70U C79U | -4.07

Variant | polymerase ribozyme fitness (log ratio)
A2G G58A U106A G122U C123U | 0.431
C11U U55G | -2.15
A37C C85A G113C | -3.33
U14A U21G G120U C124U | -0.621
U38A A43U C53U U112C G135C | -0.362
C22G G48A G69C U78A U87C | -5.69
C56G U96G U125A | -1.29
C12U U112C | 1.26
U14C A18G G63A U78C G117U | -5.13
C12A U21C A83C | -0.123
U7G C53G C115U U116G | -0.555
G63U C86G A90U C104A G110U | -6.48
C89G G110U | -2.85
U9C C12U A16G C49G | 0.31
C20G C72A C115A | -4.55
A26C G117U A119U | -7.54
G60U C101A | -0.256
G39U C49G C64U G117C | -4.42
C79G U81A C98U C102G G107C | -7.84
A24G G57C A91G | -2.98
G48C A83G G122U | -1.4
